Laboratory results: PMC3173486

Experiments:
[1] = target: HA of A/HongKong/156/97 (H5N1, clade 0) (influenza A virus A/HongKong/156/97 (H5N1)) (UniProt O56140)
[2] = target: HA of A/HongKong/156/97 (H5N1, clade 0) (influenza A virus A/HongKong/156/97 (H5N1)), O56140
[3] = target: HA of the H5N1 viruses
[4] = target: HA of A/Indonesia/5/05 (H5N1, clade 2.1) (influenza A virus A/Indonesia/5/05 (H5N1))
[5] = target: HA of A/VietNam/1194/04 (H5N1, clade 1) (influenza A virus A/VietNam/1194/04 (H5N1))

Q: “RpSP-D trimers (from UniProt Q9N1X4 21-378) (natural protein)” was tested. Which HI assay: minimal inhibitory concentration of RpSP-D trimers; failed to inhibit [1] did it give?
A: > 4500 ng/100 µl

B1: recombinant porcine SP-D, Q9N1X4 21-378 (natural protein)
chain: AEMKTYSQRAVANACALVMCSPMENGLPGRDGRDGREGPRGEKGDPGLPGAVGRAGMPGLAGPVGPKGDNGSTGEPGAKGDIGPCGPPGPPGIPGPAGKEGPSGQQGNIGPPGTPGPKGETGPKGEVGALGMQGSTGARGPAGLKGERGAPGERGAPGSAGAAGPAGATGPQGPSGARGPPGLKGDRGPPGERGAKGESGLPGITALRQQVETLQGQVQRLQKAFSQYKKVELFPNGRGVGEKIFKTGGFEKTFQDAQQVCTQAGGQMASPRSETENEALSQLVTAQNKAAFLSMTDIKTEGNFTYPTGEPLVYANWAPGEPNNNGGSSGAENCVEIFPNGKWNDKACGELRLVICEF
Q: Which HI assay: concentration of RpSP-D required to prevent hemagglutination [2] does the source give for B1 here?
A: 4500 ng/100 µl

B2: RpSP-D multimers (natural protein)
chain: B1 chain
Q: With B2 as the molecule, how does the HI assay: minimal inhibitory concentration of RpSP-D multimers [3] read?
A: 1400 ng/100 µl

B3: RpSP-D trimers (natural protein)
chain: B1 chain
Q: For B3, which HI assay: minimal inhibitory concentration of RpSP-D trimers; failed to inhibit [4] is on record?
A: > 4500 ng/100 µl

Q: What about the HI assay: minimal inhibitory concentration of RpSP-D trimers; failed to inhibit [5] of the same molecule?
A: > 4500 ng/100 µl
